Measured values taken from the supplement of paper PMC7877785.
± gives the uncertainty stated by the source.

Assay: self-splicing fitness, log relative to wild type (ln ratio); higher = more splicing; Tetrahymena group I intron in knt gene, E. coli kanamycin selection, DiMSum; sequences stand for … in CUCUCU…GGAGGGAAAAGUUAUCAGGCAUGCACCUGGUAGCUAGUCUUUAAACCAAUAGAUUGCAUCGGUUUAAAAGGCAAGACCGUCAAAUUGCGGGAAAGGGGUCAACAGCCGUUCAGUACCAAGUCUCAGGGGAAACUUUGAGAUGGCCUUGCAAAGGGUAUGGUAAUAAGCUGACGGACAUGGUCCUAACCACGCAGCCAAGUCCUAAGUCAACAGAUCUUCUGUUGAUAUGGAUGCAGUUCACAGACUAAAUGUCGGUCGGGGAAGAUGUAUUCUUCUCAUAAGAUAUAGUCGGACCUCUCCUUAAUGGGAGCUAGCGGAUGAAGUGAUGCAACACUGGAGCCGCUGGGAACUAAUUUGUAUGCGAAAGUAUAUUGAUUAGUUUUGGAGUACUCGUGGUCG
Outline: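 DiMSum derived fitness as the error-weighted combination of fold changes across replicates, kanamycin versus no kanamycin, normalised to wild type. E. coli BL21(DE3) held the library, which randomised all eight P1ex-region intron nucleotides within the knt kanamycin-resistance gene on pET-22b(+). Six replicate transformations grew overnight at 37°C or 30°C on LB agar with or without 25 μg/mL kanamycin, also containing 100 μg/mL carbenicillin, 50 μM IPTG and 0.2% rhamnose, and pooled colonies were amplicon-sequenced on an Illumina HiSeq 2500.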

Sequence | self-splicing fitness (ln) (30 °C) | self-splicing fitness (ln) (37 °C)
AAGCAGCAAUAUUACGACGU | -0.298 ± 0.067 | 0.18 ± 0.077
AAAUAGCAAUAUUACGCGUA | -2.41 ± 0.21 | -1.04 ± 0.13
GACCAGCAAUAUUACGUAUA | -1.06 ± 0.059 | -0.251 ± 0.079
CUUAAGCAAUAUUACGUGAG | -3.73 ± 0.19 | -2.14 ± 0.14
UUAGAGCAAUAUUACGUUAA | -1.9 ± 0.13 | -0.197 ± 0.15
CCGUAGCAAUAUUACGAAUG | -0.463 ± 0.099 | 0.0216 ± 0.11
AACUAGCAAUAUUACGCGGU | -4.59 ± 0.29 | -0.982 ± 0.17
CAAAAGCAAUAUUACGUAGG | -0.97 ± 0.057 | 0.00194 ± 0.083
ACAGAGCAAUAUUACGUAAU | -3.43 ± 0.4 | -2.5 ± 0.41
UUAAAGCAAUAUUACGUAUA | -1.26 ± 0.12 | -0.271 ± 0.14
CUGGAGCAAUAUUACGAGAG | -3.54 ± 0.36 | -3.53 ± 0.33
UCGAAGCAAUAUUACGUGGA | -2.29 ± 0.14 | -2.46 ± 0.16
AAGCAGCAAUAUUACGAAAG | -3.93 ± 0.23 | -2.29 ± 0.17
UGCAAGCAAUAUUACGUAAC | -4.96 ± 0.38 | -0.276 ± 0.14
AGGUAGCAAUAUUACGCUAU | -3.873 ± 0.037 | -3.13 ± 0.047
GGGCAGCAAUAUUACGUCGC | -1.69 ± 0.1 | -1.54 ± 0.14
GGAAAGCAAUAUUACGCCGC | -2.48 ± 0.41 | -1.89 ± 0.49
CGUAAGCAAUAUUACGCCCU | -1.4 ± 0.16 | -0.426 ± 0.16
CCUUAGCAAUAUUACGCUAG | -3.32 ± 0.29 | -2.04 ± 0.38
CAAUAGCAAUAUUACGGAUG | -1.51 ± 0.08 | -1.12 ± 0.088
GACAAGCAAUAUUACGCAUA | -0.868 ± 0.11 | -0.12 ± 0.15
CUAGAGCAAUAUUACGAAAC | -3.57 ± 0.31 | -2.41 ± 0.39
GUUAAGCAAUAUUACGAAAG | -1.91 ± 0.14 | -1.5 ± 0.22
ACCCAGCAAUAUUACGAACA | -0.802 ± 0.11 | -1.35 ± 0.13

Sequence | self-splicing fitness (ln) (30 °C) | self-splicing fitness (ln) (37 °C)
CUCUAGCAAUAUUACGCACU | -2.77 ± 0.31 | -3.07 ± 0.25
CGGUAGCAAUAUUACGGAGG | -2.24 ± 0.087 | -0.94 ± 0.09
UAGGAGCAAUAUUACGUAAC | -4.94 ± 0.41 | -2.48 ± 0.22
AUCGAGCAAUAUUACGAGAA |  | -2.44 ± 0.34
AAGGAGCAAUAUUACGGAAU | -3.44 ± 0.25 | -2.71 ± 0.26
GGAAAGCAAUAUUACGUAUA | -2.2 ± 0.16 | -1.16 ± 0.18
UCUGAGCAAUAUUACGUGCA | -2.65 ± 0.19 | -1.99 ± 0.22
CUUAAGCAAUAUUACGGCGA | -4.04 ± 0.46 | -1.81 ± 0.34
AUUCAGCAAUAUUACGGAGG | -2.29 ± 0.13 | -1.13 ± 0.13
GGAAAGCAAUAUUACGAUGA | -1.68 ± 0.2 | -0.498 ± 0.2
CACGAGCAAUAUUACGGUGU | -3.93 ± 0.22 | -2.33 ± 0.21
ACCUAGCAAUAUUACGCGCC | -0.396 ± 0.09 | -0.477 ± 0.12
UCGGAGCAAUAUUACGGGAC |  | -1.99 ± 0.29
AACGAGCAAUAUUACGUUAC | -3.45 ± 0.29 | -0.155 ± 0.15
UAGGAGCAAUAUUACGCGGU | -1.52 ± 0.23 | 
UAUGAGCAAUAUUACGGGGU | -2.98 ± 0.21 | -2.2 ± 0.22
UGUGAGCAAUAUUACGACGC | -2.98 ± 0.33 | -2.67 ± 0.38
UGAAAGCAAUAUUACGUAGU | -3.96 ± 0.26 | -2.16 ± 0.18
CGUUAGCAAUAUUACGGAGG | -1.43 ± 0.12 | -1.01 ± 0.11
GCCGAGCAAUAUUACGAGUC | -1.86 ± 0.14 | -0.892 ± 0.16
UCCAAGCAAUAUUACGUACG | -3.53 ± 0.19 | -1.76 ± 0.16
GGGAAGCAAUAUUACGAGAC | -1.98 ± 0.26 | -2.1 ± 0.34
UAAAAGCAAUAUUACGGCUU | -0.922 ± 0.088 | -0.468 ± 0.11
CUGUAGCAAUAUUACGACAC |  | -2.65 ± 0.44
